Assay results reported in the supplement of paper PMC10126150.
± gives the standard deviation of the averaged measurements.

Test system: ATP
Test: switch fluorescence ratio, 500 uM ATP over buffer (Cy3 cluster intensity, sum of 5 cycles each) (fold (ratio)); higher = stronger signal-on switching upon ATP binding; sequences stand for … in TCGTCGGCAGCGTCAGATGTGTATAAGAGACAGTTTTTTTTTTTTTTTTTTTTTTTTT…TC
Details: aptamer strand: ATP DNA aptamer (quencher-CACCTGGGGGAGTATTGCGGAGGAAGG + anchor), 100 nM annealed; ATP concentration: 500 uM
In short: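 The quencher-labelled ATP aptamer, at 100 nM, was annealed to Cy3-labelled switching-strand clusters on a modified Illumina MiSeq flow-cell. The clusters were imaged in selection buffer, then after 15 min with 500 uM ATP at 22 °C, and this buffer/ATP cycle ran five times with NaOH stripping and re-annealing between runs. Per-cluster fluorescence ratios, summed target-cycle over summed buffer-cycle Cy3 intensity, were averaged per switch-domain sequence. Clusters outside 100-1000 RFU were excluded.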
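Also: ATP exposure 15 min at 22 °C before imaging.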

Sequence | switch fluorescence ratio
CGGAAGGGTA | 0.989 ± 0.036
CGGAAGTATG | 1.04 ± 0.025
CGGAAGTTCG | 0.9774 ± 0.0048
CGGAATTTGG | 1.02 ± 0.041
CGGACCAACG | 1.09 ± 0.019
CGGACGGAAG | 1.01 ± 0.0078
CGGACGGTTG | 1.01 ± 0.042
CGGACTGGGA | 1.007 ± 0.0052
CGGAGACTTG | 0.973 ± 0.068
CGGAGAGGCA | 0.974 ± 0.032
CGGAGATTAC | 2.25 ± 0.035
CGGAGCAGGA | 1.48 ± 0.17
CGGAGCAGGT | 2.09 ± 0.42
CGGAGCCAGG | 1.43 ± 0.02
CGGAGGGAGT | 1.78 ± 1.1
CGGAGGGGTC | 1.02 ± 0.02
CGGAGGGGTG | 1.02 ± 0.022
CGGAGGTGTA | 1.4 ± 0.67
CGGAGTCTGT | 1.1 ± 0.048
CGGAGTTATG | 1.09 ± 0.04
CGGAGTTGGG | 0.9863 ± 0.0044
CGGATAATTT | 1.01 ± 0.047
CGGATAGAAT | 0.984 ± 0.029

Sequence | switch fluorescence ratio
CGGATAGAGG | 0.964 ± 0.012
CGGATATGCG | 1.06 ± 0.085
CGGATCATCA | 1 ± 0.021
CGGATCGTCG | 0.984 ± 0.038
CGGATGAGGT | 0.987 ± 0.052
CGGATGGAGT | 0.99128 ± 1.1e-05
CGGATGGGAA | 0.995 ± 0.024
CGGATGTGTA | 1.002 ± 0.01
CGGATGTTAC | 1.171 ± 0.0093
CGGATTAGTG | 0.964 ± 0.018
CGGATTATTT | 0.984 ± 0.037
CGGATTTGAC | 1.015 ± 0.0028
CGGCAAGAGT | 1.479 ± 0.0019
CGGCAATGTT | 1.73 ± 0.14
CGGCAGAAAT | 0.967 ± 0.022
CGGCAGGATG | 1.01 ± 0.024
CGGCAGTAAT | 1.471 ± 0.003
CGGCATCGAA | 0.985 ± 0.036
CGGCATGTCT | 0.997 ± 0.076
CGGCCAATAA | 3.19 ± 0.12
CGGCGAACTC | 1.11 ± 0.033
CGGCGAAGTT | 0.9883 ± 0.0046
CGGCGGCACG | 0.998 ± 0.086

Sequence | switch fluorescence ratio
CGGCGGGGGC | 0.998 ± 0.022
CGGCGGGGGG | 1.08 ± 0.22
CGGCGTACTA | 1.06 ± 0.014
CGGCGTCCGT | 1.01 ± 0.037
CGGCTACATT | 0.9995 ± 0.0034
CGGCTAGACG | 0.9994 ± 0.0057
CGGCTTAGAT | 0.984 ± 0.028
CGGCTTATGT | 0.9807 ± 0.0029
CGGCTTGCGG | 1.03 ± 0.015
CGGCTTTTTT | 0.959 ± 0.012
CGGGAACCTT | 1.283 ± 0.01
CGGGAACTCG | 1.01 ± 0.04
CGGGAACTGT | 0.964 ± 0.07
CGGGAAGGGG | 1.02 ± 0.03
CGGGAAGTGG | 0.996 ± 0.03
CGGGAAGTTT | 0.999 ± 0.032
CGGGAATTGG | 0.961 ± 0.067
CGGGACGTTT | 1.01 ± 0.013
CGGGAGAACT | 0.987 ± 0.026
CGGGAGCGGA | 0.995 ± 0.018
CGGGAGCGTC | 1.02 ± 0.01
CGGGAGCTTT | 1.07 ± 0.012
CGGGAGGGTC | 1.06 ± 0.012

Sequence | switch fluorescence ratio
CGGGAGGTTT | 0.9854 ± 0.0083
CGGGATAATG | 0.994 ± 0.021
CGGGATTAGC | 0.983 ± 0.022
CGGGATTATC | 1.01 ± 0.021
CGGGATTGAG | 0.979 ± 0.0058
CGGGATTGGG | 0.96 ± 0.061
CGGGCAGGTA | 1.044 ± 0.0039
CGGGCAGTTT | 1.03 ± 0.041
CGGGCCCTGA | 0.977 ± 0.013
CGGGCGCGTT | 0.984 ± 0.054
CGGGCTTCTA | 1.04 ± 0.053
CGGGGAAAGA | 0.978 ± 0.03
CGGGGAACTT | 1.01 ± 0.019
CGGGGAATAT | 0.993 ± 0.017
CGGGGACGGT | 0.9631 ± 0.0064
CGGGGAGGAA | 1.01 ± 0.072
CGGGGAGGGA | 1.03 ± 0.019
CGGGGATAAG | 0.981 ± 0.011
CGGGGATAGG | 1.041 ± 0.0075
CGGGGATATG | 0.9607 ± 0.0029
CGGGGATTTT | 1.01 ± 0.051
CGGGGCAAAA | 1.04 ± 0.027
CGGGGCATGG | 1 ± 0.039

Sequence | switch fluorescence ratio
CGGGGCCATG | 1.02 ± 0.068
CGGGGCCTGG | 0.959 ± 0.021
CGGGGCGCTA | 1.21 ± 0.29
CGGGGCGGCG | 0.986 ± 0.002
CGGGGCTATT | 0.999 ± 0.03
CGGGGCTGGC | 1.2 ± 0.13
CGGGGGACGC | 0.993 ± 0.06
CGGGGGAGTG | 0.975 ± 0.025
CGGGGGATGT | 0.999 ± 0.024
CGGGGGATT | 1.03 ± 0.02
CGGGGGCCGT | 0.936 ± 0.014
CGGGGGCGTT | 1 ± 0.018
CGGGGGCTG | 1 ± 0.039
CGGGGGCTGG | 0.989 ± 0.059
CGGGGGCTTT | 0.99 ± 0.017
CGGGGGGGCA | 1 ± 0.038
CGGGGGGGGG | 1.02 ± 0.054
CGGGGGGTCT | 0.999 ± 0.04
CGGGGGTACG | 1.02 ± 0.074
CGGGGGTAGA | 0.966 ± 0.042
CGGGGGTAGG | 1.03 ± 0.049
CGGGGGTCGG | 0.978 ± 0.012
CGGGGGTCTT | 1 ± 0.021

Sequence | switch fluorescence ratio
CGGGGGTTAG | 0.999 ± 0.033
CGGGGGTTTT | 0.994 ± 0.034
CGGGGTATGG | 1 ± 0.011
CGGGGTCGTA | 1 ± 0.047
CGGGGTCTTC | 0.996 ± 0.012
CGGGGTGCGA | 1.02 ± 0.021
CGGGGTTCGA | 1 ± 0.011
CGGGGTTGCT | 1.03 ± 0.054
CGGGGTTGGT | 1.01 ± 0.016
CGGGGTTGTC | 0.966 ± 0.069
CGGGTAAGTG | 0.97 ± 0.014
CGGGTATAGG | 1.013 ± 0.01
CGGGTATGAT | 1.031 ± 0.0092
CGGGTATTCT | 0.974 ± 0.046
CGGGTATTTA | 1.01 ± 0.025
CGGGTATTTT | 0.9878 ± 0.0043
CGGGTCTGTT | 0.979 ± 0.047
CGGGTGACTC | 1.02 ± 0.012
CGGGTGAGCT | 1.11 ± 0.16
CGGGTGAGTT | 1.15 ± 0.25
CGGGTGCCGT | 1.06 ± 0.15
CGGGTGCGGG | 1.02 ± 0.038
CGGGTGGGAG | 0.991 ± 0.038

Sequence | switch fluorescence ratio
CGGGTGGGTG | 1.01 ± 0.013
CGGGTGGTTG | 1.04 ± 0.04
CGGGTGTGAG | 1.006 ± 0.0055
CGGGTGTGCG | 0.955 ± 0.088
CGGGTGTGGC | 1.05 ± 0.015
CGGGTTAGTG | 0.992 ± 0.023
CGGGTTGGGC | 1.07 ± 0.027
CGGGTTGTCT | 0.963 ± 0.1
CGGGTTGTTA | 0.9951 ± 0.0081
CGGGTTTTGA | 1.003 ± 0.0086
CGGTAAAAAG | 1.01 ± 0.017
CGGTAAATGG | 1.02 ± 0.04
CGGTAAGGGG | 0.987 ± 0.01
CGGTAATGGG | 0.943 ± 0.031
CGGTACGCTG | 1.01 ± 0.017
CGGTACGTTT | 1.007 ± 0.0015
CGGTAGGATC | 0.995 ± 0.03
CGGTAGGGGT | 0.969 ± 0.028
CGGTAGGGTA | 0.991 ± 0.026
